One series concerns the target T1, GST tag alone (UniProt P08515 1-218 = GST).
T1 construct: Negative control of the pull-down; also called GST alone
Kind of series: GST pull-down with glutathione-agarose from E. coli BL21 lysates, S-protein-HRP blot. The method, then:
The s-tagged constructs were prepared using pET-30, (Novagen, San Diego, Calif. 92121), however, other vector systems can be used. […] The constructs were equally expressed using E. coli BL21. Either a GST-Tagged SH3 domain of Csk or a GST tag alone was co-expressed with the LYP fragment constructs. A glutathione-agarose bead was added to each of the BL21 lysates. Precipitated proteins were separated by gel-electrophoresis and transferred to a nitrocellulose filter. The filters were incubated with S-protein HRP and ECL reagent to allow for chemiluminescent detection of Csk bound LYP. […] None of the constructs precipitated when co-expressed with GST alone. In this example, bound material was detected using S-protein-horseradish peroxidase.

In series [1] the target is T2, endogenous Csk from Jurkat T cells (UniProt P41240 2-450, limits assumed).
T2 construct: mature; Native protein in the cell lysate
Kind of series: S-tag pull-down from Jurkat T cell lysate, anti-Csk blot. As to the method:
Jurkat T cells, which endogenously express Csk, were lysed and the protein lysate was subjected to a pull down assay using S-tagged LYP either having R620 or having W620. A blot was performed and detection was carried out using an anti-Csk primary antibody in a two-stage detection system.

The target in series [2] is T3, Lck phosphopeptide (ARLIEDNEpYTAAREG).
T3 chain: ARLIEDNEYTAAREG

T1 sequence (P08515 whole entry): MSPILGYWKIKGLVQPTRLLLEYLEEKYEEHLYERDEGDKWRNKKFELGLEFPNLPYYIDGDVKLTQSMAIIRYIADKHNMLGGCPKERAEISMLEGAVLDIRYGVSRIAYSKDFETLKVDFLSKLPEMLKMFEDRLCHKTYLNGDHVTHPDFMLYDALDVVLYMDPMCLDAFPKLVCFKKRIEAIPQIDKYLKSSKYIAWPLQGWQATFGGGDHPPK
T2 sequence (P41240 2-450 limits assumed): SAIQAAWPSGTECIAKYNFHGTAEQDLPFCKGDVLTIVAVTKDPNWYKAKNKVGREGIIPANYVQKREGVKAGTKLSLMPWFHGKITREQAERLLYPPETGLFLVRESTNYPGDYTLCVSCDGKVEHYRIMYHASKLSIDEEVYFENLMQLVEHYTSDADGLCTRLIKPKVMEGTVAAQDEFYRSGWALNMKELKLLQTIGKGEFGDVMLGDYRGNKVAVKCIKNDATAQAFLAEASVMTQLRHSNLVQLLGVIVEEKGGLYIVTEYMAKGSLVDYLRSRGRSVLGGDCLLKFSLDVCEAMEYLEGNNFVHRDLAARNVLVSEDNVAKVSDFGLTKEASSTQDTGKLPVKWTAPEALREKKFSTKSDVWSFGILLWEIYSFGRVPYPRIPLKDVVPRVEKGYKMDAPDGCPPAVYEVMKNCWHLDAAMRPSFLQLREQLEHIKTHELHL

B1: S-tagged LYP polypeptide corresponding to amino acid residues 603-710 with arginine at position 620 (other, human, UniProt Q9Y2R2 603-710, looked up)
chain: LATAPRIDDEIPPPLPVRTPESFIVVEEAGEFSPNVPKSLSSAVKVKIGTSLEWGGTSEPKKFDDSVILRPSKSVKLRSPKSELHQDRSSPPPPLPERTLESFFLADE
notes: Expressed in E. coli BL21; also called Construct 1; not shown: S-tag and other vector-derived residues from pET-30 (Novagen)
With B1, the binding result with GST tag alone was “no binding”.

B2: S-tagged LYP polypeptide corresponding to amino acid residues 603-710 with tryptophan at position 620 (other, human, UniProt Q9Y2R2 603-710, looked up)
chain: LATAPRIDDEIPPPLPVWTPESFIVVEEAGEFSPNVPKSLSSAVKVKIGTSLEWGGTSEPKKFDDSVILRPSKSVKLRSPKSELHQDRSSPPPPLPERTLESFFLADE
notes: Expressed in E. coli BL21; also called Construct 2; not shown: S-tag and other vector-derived residues from pET-30 (Novagen)
As for B2, the binding result (in the series with GST tag alone; in series [1]) was “no binding” each time.

B3: full length Hemagglutinin (HA) tagged LYP having R620 (protein)
chain: MDQREILQKFLDEAQSKKITKEEFANEFLKLKRQSTKYKADKTYPTTVAEKPKNIKKNRYKDILPYDYSRVELSLITSDEDSSYINANFIKGVYGPKAYIATQGPLSTTLLDFWRMIWEYSVLIIVMACMEYEMGKKKCERYWAEPGEMQLEFGPFSVSCEAEKRKSDYIIRTLKVKFNSETRTIYQFHYKNWPDHDVPSSIDPILELIWDVRCYQEDDSVPICIHCSAGCGRTGVICAIDYTWMLLKDGIIPENFSVFSLIREMRTQRPSLVQTQEQYELVYNAVLELFKRQMDVIRDKHSGTESQAKHCIPEKNHTLQADSYSPNLPKSTTKAAKMMNQQRTKMEIKESSSFDFRTSEISAKEELVLHPAKSSTSFDFLELNYSFDKNADTTMKWQTKAFPIVGEPLQKHQSLDLGSLLFEGCSNSKPVNAAGRYFNSKVPITRTKSTPFELIQQRETKEVDSKENFSYLESQPHDSCFVEMQAQKVMHVSSAELNYSLPYDSKHQIRNASNVKHHDSSALGVYSYIPLVENPYFSSWPPSGTSSKMSLDLPEKQDGTVFPSSLLPTSSTSLFSYYNSHDSLSLNSPTNISSLLNQESAVLATAPRIDDEIPPPLPVRTPESFIVVEEAGEFSPNVPKSLSSAVKVKIGTSLEWGGTSEPKKFDDSVILRPSKSVKLRSPKSELHQDRSSPPPPLPERTLESFFLADEDCMQAQSIETYSTSYPDTMENSTSSKQTLKTPGKSFTRSKSLKILRNMKKSICNSCPPNKPAESVQSNNSSSFLNFGFANRFSKPKGPRNPPPTWNI
In the case of B3, the “Dephosphorylation of an Lck phosphopeptide by immunoprecipitated HA-tagged LYP” value in series [2] is listed as “Immunoprecipitated LYP*R620 dephosphorylated 6.312±1.596 pmoles of substrate/min/106 transfected cells (n=5)”.

The record behind these values is patent US20080199514A1 (BURNHAM INSTITUTE, published 2008).
